Results reported in article PMC11413682.

B1: SARS-CoV-2 ORF10 N5 peptide [SARS-CoV-2] / CUL2^ZYG11B (residues 490–728) [human] (parent)
chain 1: GYINV
chain 2: ELFIVRQLLQIVKQKTNQNSVDTTLKFTLSALWNLTDESPTTCRHFIENQGLELFMRVLESFPTESSIQQKVLGLLNNIAEVQELHSELMWKDFIDHISSLLHSVEVEVSYFAAGIIAHLISRGEQAWTLSRSQRNSLLDDLHSAILKWPTPECEMVAYRSFNPFFPLLGCFTTPGVQLWAVWAMQHVCSKNPSRYCSMLIEEGGLQHLYNIKDHEHTDPHVQQIAVAILDSLEKHIVR

Variants of: B1
Test: ITC
Settings: with CUL2^ZYG11B (residues 490–728) [human]

Variant | Kd [µM]
chain 1 G1S | 13.2
